Test system: Bacillus subtilis
Assay: cleaved RNA product abundance (RNA/gDNA barcode ratio) relative to median wild-type variant (ratio to wild type); higher = more accumulation of the downstream cleavage product
In short: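 Reporter mRNAs based on truncated aprE or tetM carried barcoded, mutagenized RNase Y cleavage-site windows built from oligos with a 9% error rate and were integrated into the B. subtilis chromosome. Cultures grew in LB at 37°C from OD600 0.0003 to 0.3. Cleaved RNA was gel-selected, reverse transcribed and barcode-sequenced together with genomic DNA barcodes, and UMIs were collapsed. Cleaved product abundance is the per-construct ratio of RNA to gDNA barcodes, scaled to the median of constructs carrying the unmutated site.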

[1] = experiment (reporter, strain, medium): exp 8a: truncated aprE reporter, strain BJT201 with 2% xylose (RNase J1 expressed), cleavage site: glnRA (positions -5 to +31 mutated)
[2] = experiment (reporter, strain, medium): exp 2b: truncated aprE reporter, strain BJT200, cleavage site: cggR-gapA (positions -7 to +36 mutated)
[3] = experiment (reporter, strain, medium): exp 4a: truncated aprE reporter, strain BJT201 with 2% xylose (RNase J1 expressed), cleavage site: cggR-gapA (positions -7 to +36 mutated)
[4] = experiment (reporter, strain, medium): exp 6: tetM reporter, strain 168, cleavage site: cggR-gapA (positions -7 to +36 mutated)

Row | Sequence | cleaved RNA product abundance [2] | cleaved RNA product abundance [3] | further results
1 | CGACATGTCCCGCTTCTTTCATTAATCCGTTATCAATTGTTTTGCTATATACATTTACCTTTTAAGAGGAGGAAT | – | – | cleaved RNA product abundance [1]: 0.199
2 | CGACATGTCCCGCTTCTTTCATTAATCCGTTAGCAACCGTTTTGGTATATACATTTACCTTTTAAGAGGAGGAAT | – | – | cleaved RNA product abundance [1]: 0.187
3 | ACAGACGAAGGAGCCGCAAAGAAGTTATTAAGGGATGACTAATCCCTCAATATAAATATCTCTCACTTATTTAAA | 0.603 | 0.679 | cleaved RNA product abundance [4]: 0.978
4 | ACAGACGAAGGAGCCGCAAAGAAGTTATTAAGCGATGAATAATCCCTCAATATAAATAACTCTCACTTATTTAAA | 0.114 | 0.102 | –
5 | ACAGACGAAGGAGCCGCAAACAAGTTATTAAGGGATGAATAATCCCTCAAAATAAATATCTCTCACTTATTTAAA | 0.194 | 0.257 | –
6 | ACAGACGAAGGAGCCGCAAAGAAGTAATTAAGGGCTGAATAATCCCTCAATATAAATATCTCTCACTTATTTAAA | 0.161 | 0.165 | –
7 | ACAGACGAAGGAGCCGCAAAGAAGTTATTAAGGGATGAATAAACCCTGAATATAAATATCTCTCACTTATTTAAA | 0.303 | 0.388 | –
8 | ACAGACGAAGGAGCCGCAAAGAAGTTATTAAAGGATGAATATTCCCTAAATATAAATATCTCTCACTTATTTAAA | 0.0923 | – | –
9 | CGACATGTCCCGCTTCTTTCATTACTCCGTTAGCAACAGTTTTGCTATATACATTTACCTTTTAAGAGGAGGAAT | – | – | cleaved RNA product abundance [1]: 0.834
10 | ACAGACGAAGGAGCCGCAAAGAAGTTATTAAAGGATGAATAATCCCTCACTATAAATATCTCTCACTTATTTAAA | 0.113 | 0.152 | –
11 | ACAGACGAAGGAGCCGCAAAGAAGTTATTAAGGTATGAATAATCCCTCAATATAAATTTCTCTCACTTATTTAAA | – | 0.17 | –
12 | CGACATGTCCCGCTTCTTTCATTAATCCGTTAGCAACTGTTTTGCCACGTACATTTACCTTTTAAGAGGAGGAAT | – | – | cleaved RNA product abundance [1]: 0.0527
13 | CGACATGTCCCGCTTCTTTCATTAATCCGTTAGAAACTGCTTTGCTATATACATTTACCTTTTAAGAGGAGGAAT | – | – | cleaved RNA product abundance [1]: 0.146
14 | ACAGACGAAGGAGCCGCCAAGAAGTTATTAAAGGATGAATAATCCCTCAATATAAATATCTCTCACTTATTTAAA | – | 0.144 | –
15 | ACAGACGAAGGAGCCGCAAAGAAGTTATTAAGGGATTAATAATCCGTCAATATAAATATCTCTCACTTATTTAAA | – | 0.165 | –
16 | CGACATGTCCCGCTTCTTTCATTATTCCGTTAGCAACTGTTTTGATATATACATTTACCTTTTAAGAGGAGGAAT | – | – | cleaved RNA product abundance [1]: 0.502
17 | ACAGACGAAGGAGCCGCAAAGAAGTTATTAGGGGATGAATAATCCTTCAATATAAATATCTCTCACTTATTTAAA | – | 0.636 | –
18 | ACAGACGAAGGAGCCGCAAAGAAGTTATTAAGGGCTGAATATTCCCTCAATATAAATATCTCTCACTTATTTAAA | 0.228 | 0.16 | –
19 | ACAGACGAAGGAGCCGCAAAGAAGTTATTAAGTGATGAAAAATCCCTCAATATAAATATCTCTCACTTATTTAAA | 0.118 | 0.0967 | –
20 | ACAGACGAAGGAGCCGCAAAGAAGTTATTAAGGGACGAATAATCCCTCATTATAAATATCTCTCACTTATTTAAA | 0.215 | 0.326 | –

Row | Sequence | cleaved RNA product abundance [2] | cleaved RNA product abundance [3] | further results
21 | ACAGACGAAGGAGCCGCAAAGACGTTCTTAAGGGATGAATAATCCCTCAATATAAATATCTCTCACTTATTTAAA | – | 0.231 | –
22 | CGACATGTCCCGCTTCTTTCATTAATCCGTTAGCAACTGATTTGATATATACATTTACCTTTTAAGAGGAGGAAT | – | – | cleaved RNA product abundance [1]: 0.463
23 | ACAGACGAAGGAGCCGCAAAGAAGTTATTAAGGGATAAATAATCCCTCAATATAAATCTCTCTCACTTATTTAAA | 0.559 | 0.65 | –
24 | ACAGACGAAGGAGCCGCAGAGAAGTTATAAAGGGATGAATAATCCCTCAATATAAATATCTCTCACTTATTTAAA | – | 0.295 | –
25 | ACAGACGAAGGAGCCGCAAAGAAGTTATTAAGTGATGAATAATCCCTCAACATAAATATCTCTCACTTATTTAAA | – | 0.0935 | –
26 | ACAGACGAAGGAGCCGCAGAGAAGTTATTAAGGGATGAATAATCCGTCAATATAAATATCTCTCACTTATTTAAA | – | 0.294 | –
27 | ACAGACGAAGGAGCCGCAAAGAAGTTATTAAGGTATGAATAATCCCTCAATATATATATCTCTCACTTATTTAAA | 0.121 | 0.0867 | –
28 | ACAGACGAAGGAGCCGCAAAGAATTTATTAAGGGATGAATAATCCCTCGATATAAATATCTCTCACTTATTTAAA | – | 0.422 | –
29 | ACAGACGAAGGAGCCGCAAAGAAGTTATTAAGCGATGAATAATCCCTAAATATAAATATCTCTCACTTATTTAAA | 0.132 | 0.207 | –
30 | ACAGACGAAGGAGCCGCAAAGACGTTATTAAGGGATGAATAATCCCTCAATATAGATATCTCTCACTTATTTAAA | – | 0.456 | –
31 | CGACATGTCCCGCTTCTTTCATTAATCCGTTAGCAACTGTTTAGCTATATACATTTAACTTTTAAGAGGAGGAAT | – | – | cleaved RNA product abundance [1]: 0.462
32 | CGACATGTCCCGCTTCTTTCATTAACCCGTTAGCAACTGTTTTGCTATATACATTTACATTTTAAGAGGAGGAAT | – | – | cleaved RNA product abundance [1]: 2.01
33 | ACAGACGAAGGAGCCGCAAGGAAGTTATTAAGGGATGAATAATCCCTCAATATAAATATCTCTCACTTATTTAAA | 0.954 | 0.863 | cleaved RNA product abundance [4]: 1.21
34 | ACAGACGAAGGAGCCGCAAAGAAGTTATTAAGGGATTAATAATCCCTAAATATAAATATCTCTCACTTATTTAAA | 0.535 | 0.745 | –
35 | CGACATGTCCCGCTTCTTTCATTAATTCGTTAGCAACTGTTATGCTATATACATTTACCTTTTAAGAGGAGGAAT | – | – | cleaved RNA product abundance [1]: 1.05
36 | ACAGACGAAGGAGCCGCAAAGAAGTTATTAAGCGATGAATTATCCCTCAATATAAATATCTCTCACTTATTTAAA | 0.101 | 0.101 | –
37 | ACAGACGAAGGAGCCGCAAAGAAGATACTAAGGGATGAATAATCCCTCAATATAAATATCTCTCACTTATTTAAA | 0.0772 | – | –
38 | ACAGACGAAGGAGCCGCAAAGAAGTTATTAAGGGATGCATAATCCCTCAATAAAAATATCTCTCACTTATTTAAA | – | 0.139 | –
39 | ACAGACGAAGGAGCCGCAAAGAAGTAATTAAGGGATGAATAATCCCTCACTATAAATATCTCTCACTTATTTAAA | 0.135 | 0.168 | –
40 | ACAGACGAAGGAGCCGCAAAGAAGTTATTAAGGGATCAATAATCCATCAATATAAATATCTCTCACTTATTTAAA | – | 0.312 | –

Row | Sequence | cleaved RNA product abundance [2] | cleaved RNA product abundance [3] | further results
41 | CGACATGTCCCGCTTCTTTCATTAATCCGTTAGCAACTGTTTTGCTATATACATTGACCTTTTAAGAGGAGGAAT | – | – | cleaved RNA product abundance [1]: 0.989
42 | ACAGACGAAGGAGCCGCAAAGAATTTATAAAGGGATGAATAATCCCTCAATATAAATATCTCTCACTTATTTAAA | 0.355 | 0.481 | cleaved RNA product abundance [4]: 0.219
43 | ACAGACGAAGGAGCCGCAAAGAAGTTATTAAGGAATGAATAATCCCTCAATATAGATATCTCTCACTTATTTAAA | – | 0.101 | –
44 | CGACATGTCCCGCTTCTTTCATTAATCCGTAAGCAACTGTATTGCTATATACATTTACCTTTTAAGAGGAGGAAT | – | – | cleaved RNA product abundance [1]: 0.367
45 | ACAGACGAAGGAGCCGCAAAGAAGTTATTGAGGGATGAATTATCCCTCAATATAAATATCTCTCACTTATTTAAA | – | 0.0896 | –
46 | CGACATGTCCCGCTTCTTTCATTAATCCGTTAGCAACTGTTTTTCTATATACACTTACCTTTTAAGAGGAGGAAT | – | – | cleaved RNA product abundance [1]: 0.721
47 | CGACATGTCCCGCTTCTTTCATTACTCCGTTAGCAACTGTTTTGCTATGTACATTTACCTTTTAAGAGGAGGAAT | – | – | cleaved RNA product abundance [1]: 0.117
48 | ACAGACGAAGGAGCCGCAAAGAAGTTATTAAGGGATGAATAATCCCTCTGTATAAATATCTCTCACTTATTTAAA | 0.163 | 0.224 | –
49 | ACAGACGAAGGAGCCGCAAAGAACTTATTAAGGGATGAACAATCCCTCAATATAAATATCTCTCACTTATTTAAA | – | 0.344 | –
50 | CGACATGTCCCGCTTCTTTCATTAATCCGATAGCAACTGTTTTGCTATATACATCTACCTTTTAAGAGGAGGAAT | – | – | cleaved RNA product abundance [1]: 0.88
51 | CGACATGTCCCGCTTCTTTCATTACTCCGTTAGCAACTGTTTTGCTATATAAATTTACCTTTTAAGAGGAGGAAT | – | – | cleaved RNA product abundance [1]: 0.276
52 | ACAGACGAAGGAGCCGCAAAAAAGTTATTAGGGGATGAATAATCCCTCAATATAAATATCTCTCACTTATTTAAA | – | 0.608 | –
53 | ACAGACGAAGGAGCCGCAAAGAAGTTATTAAGGGATGAATAATGCCTCAATAGAAATATCTCTCACTTATTTAAA | – | 0.0653 | –
54 | ACAGACGAAGGAGCCGCAAAGAAGTTATTAAGTGATGAATAATCCCTAAATATAAATATCTCTCACTTATTTAAA | 0.143 | 0.146 | –
55 | ACAGACGAAGGAGCCGCAAAGAAATTATTAAGGTATGAATAATCCCTCAATATAAATATCTCTCACTTATTTAAA | 0.122 | 0.105 | –
56 | ACAGACGAAGGAGCCGCAAAGAAATTATCAAGGGATGAATAATCCCTCAATATAAATATCTCTCACTTATTTAAA | – | 0.475 | –
57 | ACAGACGAAGGAGCCGCATAGAAGTTATTAAGGGATGAATAATCGCTCAATATAAATATCTCTCACTTATTTAAA | – | 0.141 | –
58 | ACAGACGAAGGAGCCGCAAAGAAGGTATTAAGGGATGAATAATCCATCAATATAAATATCTCTCACTTATTTAAA | – | 0.13 | –
59 | CGACATGTCCCGCTTCTTTCATTAATCCGTTACCAACTGTTTTGCTATATACGTTTACCTTTTAAGAGGAGGAAT | – | – | cleaved RNA product abundance [1]: 0.253
